# According to patent publication US20180155451A1 (published 2018):
# T1: FcγRIIa R (extracellular domain, C-terminal His tag) (human, UniProt P12318 34-217)
# T1 construct: extracellular domain; also called FcgRIIa R type; 2aR; not shown: His tag attached to the C terminus
# T1 sequence (looked up): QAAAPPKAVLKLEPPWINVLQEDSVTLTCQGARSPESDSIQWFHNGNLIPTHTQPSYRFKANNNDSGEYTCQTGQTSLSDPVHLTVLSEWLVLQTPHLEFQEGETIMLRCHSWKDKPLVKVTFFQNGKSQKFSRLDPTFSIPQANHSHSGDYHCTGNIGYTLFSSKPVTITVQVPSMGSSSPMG
# T2: FcγRIIb (extracellular domain, C-terminal His tag) (human, UniProt P31994 43-217)
# T2 construct: extracellular domain; also called FcgRIIb; 2b; not shown: His tag attached to the C terminus
# T2 sequence (looked up): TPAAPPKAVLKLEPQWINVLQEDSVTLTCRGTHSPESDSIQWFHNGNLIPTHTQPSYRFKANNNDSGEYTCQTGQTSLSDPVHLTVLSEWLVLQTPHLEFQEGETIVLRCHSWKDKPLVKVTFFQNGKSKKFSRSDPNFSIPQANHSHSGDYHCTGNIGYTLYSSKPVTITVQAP
# T3: FcγRIIb extracellular domain with C-terminal His tag (human, UniProt P31994 43-217)
# T3 construct: extracellular domain; Soluble receptor expressed in FreeStyle293 cells, used as analyte in Biacore; also called FcgRIIb; CD32B; not shown: His tag at the C terminus
# T3 sequence (looked up): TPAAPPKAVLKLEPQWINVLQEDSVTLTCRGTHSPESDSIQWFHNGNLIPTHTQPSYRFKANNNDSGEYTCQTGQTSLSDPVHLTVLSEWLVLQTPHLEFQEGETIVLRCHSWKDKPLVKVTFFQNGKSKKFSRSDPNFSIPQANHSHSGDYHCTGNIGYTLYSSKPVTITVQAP
# Experiments:
# [1] = biological target: T1, FcγRIIa R (extracellular domain, …); test: ratio of He/Con_2aR to He/Con_2b (FcγRIIb); SPR relative binding
# Description: (§1) The heterodimerized antibodies He Abs in which one of the H chains was introduced with an alteration were assayed for their binding activities to each activating FcγR and inhibitory FcγR according to the method described in Example 4. […] The activating FcγRs in FIGS. 26, 27, 28, and 29 are FcγRIa, FcγRIIa (R), FcγRIIa (H), and FcγRIIIa, respectively.
# (§2) Analysis of interaction between objective antibody and the FcγR was carried out using Biacore T100 (GE Healthcare). HBS-EP+ (GE Healthcare) was used as the running buffer, and the measurement temperature was set to 25° C. Chips produced by immobilizing the antigen peptide by the amine coupling method to a Series S Sencor Chip CM5 (GE Healthcare), or alternatively, chips produced by allowing preliminarily biotinylated antigen peptides to interact with and immobilize onto a Series S Sensor Chip SA (certified) (GE Healthcare) were used. Antibodies of interest were captured onto an antigen peptide-immobilized chip, and allowed to interact to each FcγR diluted with running buffer. To regenerate and repeatedly use the chip, the antibodies captured on the chip were washed off by reacting 10 mM glycine-HCl, pH 1.5.
# [2] = biological target: T2, FcγRIIb (extracellular domain, …); test: SPR (Biacore), antibody captured on antigen-peptide chip, FcγR as analyte; relative binding amount
# Description: as §1, §2
# [3] = biological target: T1, FcγRIIa R (extracellular domain, …); test: as above
# Description: as §1, §2
# [4] = biological target: T4, FcγRIa extracellular domain with C-terminal His tag (human, UniProt P12314 16-292); test: SPR (Biacore); ratio of He/Con_1a (FcγRIa) to He/Con_2b (FcγRIIb) of the same antibody
# T4 construct: extracellular domain; Soluble receptor expressed in FreeStyle293 cells, used as analyte in Biacore; also called FcgRI; CD64; not shown: His tag at the C terminus
# [5] = biological target: T4, FcγRIa extracellular domain with …; test: SPR (Biacore), antibody captured via antigen peptide, FcγR as analyte; binding relative to GpH7-A5/GpH7-B3/GpL16-k0 = 100
# [6] = biological target: T3, FcγRIIb extracellular domain with …; test: as above
# T4 sequence (P12314 16-292): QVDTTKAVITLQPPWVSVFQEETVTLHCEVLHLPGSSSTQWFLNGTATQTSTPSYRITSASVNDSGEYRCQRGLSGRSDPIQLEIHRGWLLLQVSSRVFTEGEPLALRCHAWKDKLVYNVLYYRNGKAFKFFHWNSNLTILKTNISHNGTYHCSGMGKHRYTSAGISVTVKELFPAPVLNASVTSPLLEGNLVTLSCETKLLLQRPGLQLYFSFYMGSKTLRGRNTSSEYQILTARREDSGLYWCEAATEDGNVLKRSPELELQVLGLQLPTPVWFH
He_2aR/2b (IIaR/IIb) [1],He/Con_2b [2],He/Con_2aR [3],Ia/IIb He_1a/2b [4],He/Con_1a [5],He/Con_2b [6],Binder
1.44,50.7 % of control (GpH7-A5/GpH7-B3/GpL16-k0 = 100),73.1 % of control (GpH7-A5/GpH7-B3/GpL16-k0 = 100),–,–,–,"GpH7-A5/GpH7-B3 variant P238_14T/GpL16-k0 (antibody, human IgG1, kappa, Heterodimerized anti-glypican-3 IgG1; alteration in only one H chain (GpH7-B3 side); also called He Ab) heavy 1: not shown heavy 2: not shown light: DIVMTQSPLSLPVTPGEPASISCQASESLVHSNRNTYLHWYLQKPGQSPQLLIYKVSNRFSGVPDRFSGSGSGTDFTLKISRVEAEDVGVYYCSQNTHVPPTFGQGTKVEIERTVAAPSVFIFPPSDEQLKSGTASVVCLLNNFYPREAKVQWKVDNALQSGNSQESVTEQDSKDSTYSLSSTLTLSKADYEKHKVYACEVTHQGLSSPVTKSFNRGEC"
1.49,16.1 % of control (GpH7-A5/GpH7-B3/GpL16-k0 = 100),24.1 % of control (GpH7-A5/GpH7-B3/GpL16-k0 = 100),–,–,–,"GpH7-A5/GpH7-B3 variant D265_01G/GpL16-k0 (antibody, human IgG1, kappa, Heterodimerized anti-glypican-3 IgG1; alteration in only one H chain (GpH7-B3 side); also called He Ab) heavy 1: not shown heavy 2: not shown light: DIVMTQSPLSLPVTPGEPASISCQASESLVHSNRNTYLHWYLQKPGQSPQLLIYKVSNRFSGVPDRFSGSGSGTDFTLKISRVEAEDVGVYYCSQNTHVPPTFGQGTKVEIERTVAAPSVFIFPPSDEQLKSGTASVVCLLNNFYPREAKVQWKVDNALQSGNSQESVTEQDSKDSTYSLSSTLTLSKADYEKHKVYACEVTHQGLSSPVTKSFNRGEC"
1.46,4.6 % of control (GpH7-A5/GpH7-B3/GpL16-k0 = 100),6.6 % of control (GpH7-A5/GpH7-B3/GpL16-k0 = 100),–,–,–,"GpH7-A5/GpH7-B3 variant D265_08L/GpL16-k0 (antibody, human IgG1, kappa, Heterodimerized anti-glypican-3 IgG1; alteration in only one H chain (GpH7-B3 side); also called He Ab) heavy 1: not shown heavy 2: not shown light: DIVMTQSPLSLPVTPGEPASISCQASESLVHSNRNTYLHWYLQKPGQSPQLLIYKVSNRFSGVPDRFSGSGSGTDFTLKISRVEAEDVGVYYCSQNTHVPPTFGQGTKVEIERTVAAPSVFIFPPSDEQLKSGTASVVCLLNNFYPREAKVQWKVDNALQSGNSQESVTEQDSKDSTYSLSSTLTLSKADYEKHKVYACEVTHQGLSSPVTKSFNRGEC"
1.79,3.2 % of control (GpH7-A5/GpH7-B3/GpL16-k0 = 100),5.6 % of control (GpH7-A5/GpH7-B3/GpL16-k0 = 100),–,–,–,"GpH7-A5/GpH7-B3 variant D265_04F/GpL16-k0 (antibody, human IgG1, kappa, Heterodimerized anti-glypican-3 IgG1; alteration in only one H chain (GpH7-B3 side); also called He Ab) heavy 1: not shown heavy 2: not shown light: DIVMTQSPLSLPVTPGEPASISCQASESLVHSNRNTYLHWYLQKPGQSPQLLIYKVSNRFSGVPDRFSGSGSGTDFTLKISRVEAEDVGVYYCSQNTHVPPTFGQGTKVEIERTVAAPSVFIFPPSDEQLKSGTASVVCLLNNFYPREAKVQWKVDNALQSGNSQESVTEQDSKDSTYSLSSTLTLSKADYEKHKVYACEVTHQGLSSPVTKSFNRGEC"
1.8,3.2 % of control (GpH7-A5/GpH7-B3/GpL16-k0 = 100),5.8 % of control (GpH7-A5/GpH7-B3/GpL16-k0 = 100),–,–,–,"GpH7-A5/GpH7-B3 variant D265_03V/GpL16-k0 (antibody, human IgG1, kappa, Heterodimerized anti-glypican-3 IgG1; alteration in only one H chain (GpH7-B3 side); also called He Ab) heavy 1: not shown heavy 2: not shown light: DIVMTQSPLSLPVTPGEPASISCQASESLVHSNRNTYLHWYLQKPGQSPQLLIYKVSNRFSGVPDRFSGSGSGTDFTLKISRVEAEDVGVYYCSQNTHVPPTFGQGTKVEIERTVAAPSVFIFPPSDEQLKSGTASVVCLLNNFYPREAKVQWKVDNALQSGNSQESVTEQDSKDSTYSLSSTLTLSKADYEKHKVYACEVTHQGLSSPVTKSFNRGEC"
–,–,–,1.78,88.1 % of control (GpH7-A5/GpH7-B3/GpL16-k0 = 100),49.4 % of control (GpH7-A5/GpH7-B3/GpL16-k0 = 100),"GpH7-A5/GpH7-B3 variant S239_16H/GpL16-k0 (antibody, human IgG1, kappa, Heterodimerized anti-glypican-3 IgG1; substitution in only one H chain; also called S239H; He Ab) heavy 1: not shown heavy 2: not shown light: DIVMTQSPLSLPVTPGEPASISCQASESLVHSNRNTYLHWYLQKPGQSPQLLIYKVSNRFSGVPDRFSGSGSGTDFTLKISRVEAEDVGVYYCSQNTHVPPTFGQGTKVEIERTVAAPSVFIFPPSDEQLKSGTASVVCLLNNFYPREAKVQWKVDNALQSGNSQESVTEQDSKDSTYSLSSTLTLSKADYEKHKVYACEVTHQGLSSPVTKSFNRGEC"
1.71,19.9 % of control (GpH7-A5/GpH7-B3/GpL16-k0 = 100),33.9 % of control (GpH7-A5/GpH7-B3/GpL16-k0 = 100),–,–,–,"GpH7-A5/GpH7-B3 variant D265_02A/GpL16-k0 (antibody, human IgG1, kappa, Heterodimerized anti-glypican-3 IgG1; alteration in only one H chain (GpH7-B3 side); also called He Ab) heavy 1: not shown heavy 2: not shown light: DIVMTQSPLSLPVTPGEPASISCQASESLVHSNRNTYLHWYLQKPGQSPQLLIYKVSNRFSGVPDRFSGSGSGTDFTLKISRVEAEDVGVYYCSQNTHVPPTFGQGTKVEIERTVAAPSVFIFPPSDEQLKSGTASVVCLLNNFYPREAKVQWKVDNALQSGNSQESVTEQDSKDSTYSLSSTLTLSKADYEKHKVYACEVTHQGLSSPVTKSFNRGEC"
–,–,–,2.57,89.8 % of control (GpH7-A5/GpH7-B3/GpL16-k0 = 100),34.9 % of control (GpH7-A5/GpH7-B3/GpL16-k0 = 100),"GpH7-A5/GpH7-B3 variant S239_15Y/GpL16-k0 (antibody, human IgG1, kappa, Heterodimerized anti-glypican-3 IgG1; substitution in only one H chain; also called S239Y; He Ab) heavy 1: not shown heavy 2: not shown light: DIVMTQSPLSLPVTPGEPASISCQASESLVHSNRNTYLHWYLQKPGQSPQLLIYKVSNRFSGVPDRFSGSGSGTDFTLKISRVEAEDVGVYYCSQNTHVPPTFGQGTKVEIERTVAAPSVFIFPPSDEQLKSGTASVVCLLNNFYPREAKVQWKVDNALQSGNSQESVTEQDSKDSTYSLSSTLTLSKADYEKHKVYACEVTHQGLSSPVTKSFNRGEC"
